# Experimental data as given in article PMC10917059, “RhoU forms homo-oligomers to regulate cellular responses” (Journal of Cell Science, 2024).
# B1: Myc–RhoU (natural protein)
# chain: not shown
# notes: vector a gift from Pontus Aspenström; also called pRK5-myc-RhoU; full-length RhoU; source: COS7, transfected, in lysate; not shown: Myc, N-terminal, kept
# Molecular target: the molecule itself
# Test: cross-linking; lysates of transfected COS7 cells in 20 mM HEPES pH 7.2, 1% Triton X-100, incubated with DSS (0.25 mM in the methods; increasing concentrations in the results) or DMSO for 30 min at 4°C; anti-Myc blot
protein,measurement,value
B1,stoichiometry N,2
